Test results from patent publication US20240352438A1, “MEANS AND METHODS FOR DETOXIFYING OCHRATOXIN A” (DSM Austria GmbH, priority 2021, published 2024).

How the values were obtained:
[1] = Thermostability assay: residual OTA detoxification activity after 10 min incubation at 45-99° C. (T50); assay type: physicochemical; settings: 0.1 mg/mL protein in 20 mM Tris-HCl pH 7.5, residual OTA detoxification activity relative to 4° C. reference aliquot
Procedure, shortened: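 T50 marks the temperature range at which half the starting OTA-detoxifying activity is lost, versus an unheated 4 °C reference. Samples were 0.1 mg/mL purified protein in 20 mM Tris-HCl pH 7.5, exposed for 10 min to 45, 55, 65, 75, 80, 85, 90, 95 or 99 °C.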

[2] = OTA detoxification activity assay (specific activity, fluorescence reduction ex/em 390/450 nm); assay type: biochemical; settings: SEQ ID NO: 2 = 100%
Procedure, shortened: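 Recombinant enzyme preparation with 200 ng/mL OTA in 100 mM sodium phosphate, at pH 6.0 and pH 7.5, 37° C. Degradation followed as the fall in fluorescence at ex/em 390/450 nm. Specific activity taken from the initial linear slope; one unit degrades 1 μmol OTA per min at a starting OTA of […].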

Row | Molecule | T50 (temperature at which 50% of the initial activity was maintained) [1] | Specific OTA detoxification activities in % compared to the enzyme of SEQ ID NO: 2, pH 6.0 [2] | Specific OTA detoxification activities in % compared to the enzyme of SEQ ID NO: 2, pH 7.5 [2]
1 | 42 (protein, exemplary polypeptide) MYSLAIRNGIVFDGEKFIGKTNIYVDGDKIVKITNERLDAKEEVNAEGYFVMPGLIDAHLHLTGIRGGSLLMGYLLDDPRTRLLRAANWARELLMAGFTTVRDCGEPNSIILRNAINEGIIPGPRIIAAGSPITQTFGHAELSHSLPLEWSIQLGFGEICDGVDECIKAARKVLRSGADFIKIMATGGVLSERDRPEWPQLTPEEMSAIVREAEKVGTYVAAHAHGDKGARIAVEAGVRTIEHGSLITEETVKLMAEKGVSLTPTLSIQELIYKYGKQMGIDPWGLEKIGQVREGVINSIKLARKYGVMILAGTDLGVKTGLDIDMGKNWVEVKLLVELGGLSSEEALRAATGNASKMLRLNTGIIREGYLADIVLINGNPLENINDIARVSTVIKGGKVTVENGKLI | >99 °C | 131.00% | 595.00%
2 | 43 (protein, exemplary polypeptide) MYSLAIRNGIVFDGEKFIGKTNIYVDGDKIVKITNERLDAKEEVNAEGYFVMPGLIDAHLHLTGIRGGSLLMGYLLDDPRTRLLRAANWARELLMAGFTTVRDCGEPNSIILRNAINEGIIPGPRIIAAGSAITQTFGHAELSHSLPLEWSIQLGFGEICDGVDECIKAARKVLRSGADFIKIMATGGVLSERDRPEWPQLTPEEMSAIVREAEKVGTYVAAHAHGDKGARIAVEAGVRTIEHGSLITEETVKLMAEKGVSLTPTLSIQELIYKYGKQMGIDPWGLEKIGQVREGVINSIKLARKYGVMILAGTDLGFKTGLDIDMGKNWVEVKLLVELGGLSSEEALRAATGNASKMLRLNTGIIREGYLADIVLINGNPLENINDIARVSTVIKGGKVTVENGKLI | >99 °C | 46.00% | 19.00%
3 | 44 (protein, exemplary polypeptide) MYSLAIRNGIVFDGEKFIGKTNIYVDGDKIVKITNERLDAKEEVNAEGYFVMPGLIDAHLHLTGIRGGSLLMGYLLDDPRTRLLRAANWARELLMAGFTTVRDCGEPNSIILRNAINEGIIPGPRIIAAGSPITQTFGHAELSHSLPLEWSIQLGFGEICDGVDECIKAARKVLRSGADFIKIMATGGVLSERDRPEWPQLTPEEMSAIVREAEKVGTYVAAHAHGDKGARIAVEAGVRTIEHGSLITEETVKLMAEKGVSLTPTLSIQELVYKYGKQMGIDPWGLEKIGQVREGVINSIKLARKYGVMILAGTDLGFKTGLDIDMGKNWVEVKLLVELGGLSSEEALRAATGNASKMLRLNTGIIREGYLADIVLINGNPLENINDIARVSTVIKGGKVTVENGKLI | >99 °C | 84.00% | 84.00%
4 | 45 (protein, exemplary polypeptide) MYSLAIRNGIVFDGEKFIGKTNIYVDGDKIVKITNERLDAKEEVNAEGYFVMPGLIDAHLHLTGIRGGSLLMGYLLDDPRTRLLRAANWARELLMAGFTTVRDCGEPNSIILRNAINEGIIPGPRIIAAGSPITQTFGHAELSHSLPLEWSIQLGFGEICDGVDECIKAARKVLRSGADFIKIMATGGVLSERDRPEWPQLTPEEMSAIVREAEKVGTYVAAHAHGDKGARIAVEAGVRTIEHGSLITEETVKLMAEKGVSLTPTLSIQELIYKFGKQMGIDPWGLEKIGQVREGVINSIKLARKYGVMILAGTDLGFKTGLDIDMGKNWVEVKLLVELGGLSSEEALRAATGNASKMLRLNTGIIREGYLADIVLINGNPLENINDIARVSTVIKGGKVTVENGKLI | >99 °C | 168.00% | 138.00%
